According to US20220251236A1 (Boehringer Ingelheim, published 2022):

T1: human DLL3 (endogenous, on SCLC cell lines NCI-H82 and SHP77 and in SCLC tissue) (human, UniProt Q9NYJ7 27-618)
T1 construct: whole, on cells; also called SCLC cell lines expressing DLL3
T1 sequence (looked up): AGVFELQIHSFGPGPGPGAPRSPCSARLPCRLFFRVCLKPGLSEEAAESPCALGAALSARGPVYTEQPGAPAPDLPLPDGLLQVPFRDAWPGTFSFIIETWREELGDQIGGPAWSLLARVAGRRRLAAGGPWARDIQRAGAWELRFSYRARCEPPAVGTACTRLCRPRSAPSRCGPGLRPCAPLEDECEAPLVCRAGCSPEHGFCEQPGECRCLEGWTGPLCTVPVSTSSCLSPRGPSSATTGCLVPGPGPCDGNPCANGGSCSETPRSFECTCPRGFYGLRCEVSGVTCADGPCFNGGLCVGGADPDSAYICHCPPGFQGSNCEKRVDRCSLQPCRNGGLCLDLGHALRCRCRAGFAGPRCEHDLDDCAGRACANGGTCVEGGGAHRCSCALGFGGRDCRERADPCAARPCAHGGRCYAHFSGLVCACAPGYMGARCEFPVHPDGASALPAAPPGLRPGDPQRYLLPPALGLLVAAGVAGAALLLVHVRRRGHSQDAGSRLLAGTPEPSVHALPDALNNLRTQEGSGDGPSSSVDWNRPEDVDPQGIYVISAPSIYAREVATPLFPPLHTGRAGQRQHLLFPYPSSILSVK

T2: EGF6+MEMBRANE PROXIMAL PEPTIDE
T2 construct: also called Hu DLL3 EGF6+membrane proximal peptide on HEK293 cells
T2 membrane-anchored DLL3 subdomain construct: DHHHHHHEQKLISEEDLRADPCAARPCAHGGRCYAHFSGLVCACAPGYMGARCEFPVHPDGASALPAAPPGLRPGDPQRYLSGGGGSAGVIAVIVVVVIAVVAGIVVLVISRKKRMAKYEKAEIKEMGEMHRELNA

T3: EGF5+6
T3 construct: also called Hu DLL3 EGF5+6 on HEK293 cells
T3 membrane-anchored DLL3 subdomain construct: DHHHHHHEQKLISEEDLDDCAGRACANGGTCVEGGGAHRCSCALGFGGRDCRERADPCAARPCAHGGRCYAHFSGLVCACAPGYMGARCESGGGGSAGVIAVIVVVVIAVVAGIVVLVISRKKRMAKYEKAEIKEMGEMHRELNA

T4: EGF4+5
T4 construct: also called Hu DLL3 EGF4+5 on HEK293 cells
T4 membrane-anchored DLL3 subdomain construct: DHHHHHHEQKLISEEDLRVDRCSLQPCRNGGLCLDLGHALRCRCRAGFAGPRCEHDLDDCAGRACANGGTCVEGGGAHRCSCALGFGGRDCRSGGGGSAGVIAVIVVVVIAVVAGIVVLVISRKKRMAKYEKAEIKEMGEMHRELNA

T5: EGF2+3
T5 construct: also called Hu DLL3 EGF2+3 on HEK293 cells
T5 membrane-anchored DLL3 subdomain construct: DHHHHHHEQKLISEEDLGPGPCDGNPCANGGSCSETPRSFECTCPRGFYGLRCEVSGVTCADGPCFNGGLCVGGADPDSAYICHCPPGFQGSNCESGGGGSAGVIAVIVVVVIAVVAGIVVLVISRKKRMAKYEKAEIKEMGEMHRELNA

T6: EGF3+4
T6 construct: also called Hu DLL3 EGF3+4 on HEK293 cells
T6 membrane-anchored DLL3 subdomain construct: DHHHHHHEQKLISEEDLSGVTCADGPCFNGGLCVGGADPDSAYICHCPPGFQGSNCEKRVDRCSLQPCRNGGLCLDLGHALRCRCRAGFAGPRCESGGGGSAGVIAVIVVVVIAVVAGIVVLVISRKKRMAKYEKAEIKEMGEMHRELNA

B1: DLL3#17/CD3#1 (bispecific antibody, human IgG1, kappa, lambda, L234A L235A)
chain 1: DIQMTQSPASLAASVGETVTITCRASENIYYSLAWYQQKQGKSPQLLIYNTNSLEDGVPSRFSGSGSGTQYSMKINSMQPEDTATYFCKQAYDFPLTFGAGTKLELKRTVAAPSVFIFPPSDEQLKSGTASVVCLLNNFYPREAKVQWKVDNALQSGNSQESVTEQDSKDSTYSLSSTLTLSKADYEKHKVYACEVTHQGLSSPVTKSFNRGECGGGGSEGKSSGSGSESKSTEGKSSGSGSESKSTGGGGSQIQLQQSGPEVVKPGASVKISCKASGYTFISYYIHWVKQRPGQGLEWIGWIYPGDGSTNNNEKFKGKTTLTADKSSSTAYMLLSSLTSEDSAVYFCARGEGNAMDDWGQGTSVTVSSASTKGPSVFPLAPSSKSTSGGTAALGCLVKDYFPEPVTVSWNSGALTSGVHTFPAVLQSSGLYSLSSVVTVPSSSLGTQTYICNVNHKPSNTKVDKRVEPKSCDKTHTCPPCPAPEAAGGPSVFLFPPKPKDTLMISRTPEVTCVVVDVSHEDPEVKFNWYVDGVEVHNAKTKPREEQYNSTYRVVSVLTVLHQDWLNGKEYKCKVSNKALPAPIEKTISKAKGQPREPQVYTLPPSREEMTKNQVSLWCLVKGFYPSDIAVEWESNGQPENNYKTTPPVLDSDGSFFLYSKLTVDKSRWQQGNVFSCSVMHEALHNHYTQKSLSLSPG
chain 2: EAVVTQEPSLTVSPGGTVTLTCRSSTGAVTTSNYANWVQEKPGQLPRGLIGGTNKRAPWVPARFSGSLLGGKAALTLSGAQPEDEAEYFCALWYSNLWVFGGGTKLTVLGQPKAAPSVTLFPPSSEELQANKATLVCLISDFYPGAVKVAWKADGSPVNTGVETTTPSKQSNNKYAASSYLSLTPEQWKSHRSYSCQVTHEGSTVEKTVAPAECSGGGGSEGKSSGSGSESKSTEGKSSGSGSESKSTGGGGSEVQLVESGGGLVQPGGSLKLSCAASGFTFNTYAMNWVRQAPGKGLEWVARIRSKYNNYATYYADSVKDRFTISRDDSKNTAYLQMNNLKTEDTAVYYCVRHGNFGNSYVSWFAYWGQGTLVTVSAASTKGPSVFPLAPSSKSTSGGTAALGCLVKDYFPEPVTVSWNSGALTSGVHTFPAVLQSSGLYSLSSVVTVPSSSLGTQTYICNVNHKPSNTKVDKRVEPKSCDKTHTCPPCPAPEAAGGPSVFLFPPKPKDTLMISRTPEVTCVVVDVSHEDPEVKFNWYVDGVEVHNAKTKPREEQYNSTYRVVSVLTVLHQDWLNGKEYKCKVSNKALPAPIEKTISKAKGQPREPQVYTLPPSREEMTKNQVSLSCAVKGFYPSDIAVEWESNGQPENNYKTTPPVLDSDGSFFLVSKLTVDKSRWQQGNVFSCSVMHEALHNRFTQKSLSLSPG
notes: Heterodimer of one DLL3 chain and one CD3 chain (scFab-Fc, knob-in-hole)
B2: DLL3#18/CD3#1 (bispecific antibody, human IgG1, kappa, lambda, L234A L235A)
chain 1: DIQMTQSPASLAASVGETVTITCRASENIYYSLAWYQQKQGKSPQLLIYNANSLEDGVPSRFSGSGSGTQYSMKINNMQPEDTATYFCKQAYDVPLTFGAGTKLELKRTVAAPSVFIFPPSDEQLKSGTASVVCLLNNFYPREAKVQWKVDNALQSGNSQESVTEQDSKDSTYSLSSTLTLSKADYEKHKVYACEVTHQGLSSPVTKSFNRGECGGGGSEGKSSGSGSESKSTEGKSSGSGSESKSTGGGGSQVQLQQSGPDLVKPGASVKMSCEASGYTFTAYFIHWVKQKPGQGLEWIGYIDPFNDDTNYNVKFKGKATLTSDTSSSIAYMELSSLTSEDSSFYYCARGTSATLDYWGHGTTLTVSSASTKGPSVFPLAPSSKSTSGGTAALGCLVKDYFPEPVTVSWNSGALTSGVHTFPAVLQSSGLYSLSSVVTVPSSSLGTQTYICNVNHKPSNTKVDKRVEPKSCDKTHTCPPCPAPEAAGGPSVFLFPPKPKDTLMISRTPEVTCVVVDVSHEDPEVKFNWYVDGVEVHNAKTKPREEQYNSTYRVVSVLTVLHQDWLNGKEYKCKVSNKALPAPIEKTISKAKGQPREPQVYTLPPSREEMTKNQVSLWCLVKGFYPSDIAVEWESNGQPENNYKTTPPVLDSDGSFFLYSKLTVDKSRWQQGNVFSCSVMHEALHNHYTQKSLSLSPG
chain 2: B1 chain 2
notes: as for B1
B3: DLL3#13/CD3#1 (bispecific antibody, human IgG1, kappa, lambda, L234A L235A)
chain 1: DVLMTQTPLSLPVSLGDQAAISCRSSQSIVHSNGNTYLEWYLQKPGQSPKVLIYKVSNRFSGVPDRFSGSGSGTDFTLKISRVEAEDLGVYYCFQGSHVPYTFGGGTKLEIKRTVAAPSVFIFPPSDEQLKSGTASVVCLLNNFYPREAKVQWKVDNALQSGNSQESVTEQDSKDSTYSLSSTLTLSKADYEKHKVYACEVTHQGLSSPVTKSFNRGECGGGGSEGKSSGSGSESKSTEGKSSGSGSESKSTGGGGSQIQLVQSGPELKKPGETVKISCKASGYTFTNYGVTWVKQAPGKGLKWMGWINTYSGAPTYADDFNGRFALSLETSASTAYLQINNLKNEDTATYFCARLDDYDLYYFDYWGQGTALTVSSASTKGPSVFPLAPSSKSTSGGTAALGCLVKDYFPEPVTVSWNSGALTSGVHTFPAVLQSSGLYSLSSVVTVPSSSLGTQTYICNVNHKPSNTKVDKRVEPKSCDKTHTCPPCPAPEAAGGPSVFLFPPKPKDTLMISRTPEVTCVVVDVSHEDPEVKFNWYVDGVEVHNAKTKPREEQYNSTYRVVSVLTVLHQDWLNGKEYKCKVSNKALPAPIEKTISKAKGQPREPQVYTLPPSREEMTKNQVSLWCLVKGFYPSDIAVEWESNGQPENNYKTTPPVLDSDGSFFLYSKLTVDKSRWQQGNVFSCSVMHEALHNHYTQKSLSLSPG
chain 2: B1 chain 2
notes: as for B1

biological target: T1, human DLL3 (endogenous, on SCLC cell …); experiment: flow cytometry titration on SHP77 cells, PE anti-human secondary, x-fold over background
Text: Cells (T cells or human SCLC cells) were stained with increasing concentrations of two-step purified DLL3/CD3 binding proteins with increasing concentrations in FACS buffer (PBS/0.5% BSA/0.05% sodium azide). Bound molecules were detected with PE-conjugated anti-human secondary antibody (Sigma-Aldrich, #P8047).

Binder | EC50 (read off the curve)
B1 | ~2 nM
B2 | ~2 nM
B3 | ~2 nM

Biological target: T2, EGF6+MEMBRANE PROXIMAL PEPTIDE
Experiment: flow cytometry on HEK293 cells expressing the DLL3 subdomain construct, PE anti-human secondary, control: secondary antibody only
Procedure, shortened: (§1)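 Binders tested on HEK293 cells displaying the DLL3 subdomain construct; bound molecules detected by flow cytometry using PE-conjugated anti-human secondary antibody. Negative control: cells with secondary antibody only.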

Binder | binding result
B1 | no binding (tested: 1.6 nM)
B2 | no binding (tested: 1.6 nM)
B3 | no binding (tested: 1.6 nM)

Biological target: T3, EGF5+6
Experiment: as above
Procedure, shortened: as §1

Binder | binding result
B1 | no binding (tested: 1.6 nM)
B2 | no binding (tested: 1.6 nM)
B3 | no binding (tested: 1.6 nM)

Biological target: T4, EGF4+5
Experiment: as above
Procedure, shortened: as §1

Binder | binding result
B1 | no binding (tested: 1.6 nM)
B2 | no binding (tested: 1.6 nM)
B3 | no binding (tested: 1.6 nM)

Biological target: T5, EGF2+3
Experiment: as above
Procedure, shortened: as §1

Binder | binding result
B1 | no binding (tested: 1.6 nM)
B2 | no binding (tested: 1.6 nM)
B3 | no binding (tested: 1.6 nM)

Biological target: T6, EGF3+4
Experiment: as above
Procedure, shortened: as §1

Binder | binding result
B1 | no binding (tested: 1.6 nM)
B2 | no binding (tested: 1.6 nM)
B3 | no binding (tested: 1.6 nM)

biological target: T7, trypsin inhibitor from glycine max soybean (Glycine max (soybean)); experiment: SPR (Biacore T200), trypsin inhibitor on CM5 chip, sample at 1 µM
T7 construct: also called Tryp
T7 sequence (P01070 25-205): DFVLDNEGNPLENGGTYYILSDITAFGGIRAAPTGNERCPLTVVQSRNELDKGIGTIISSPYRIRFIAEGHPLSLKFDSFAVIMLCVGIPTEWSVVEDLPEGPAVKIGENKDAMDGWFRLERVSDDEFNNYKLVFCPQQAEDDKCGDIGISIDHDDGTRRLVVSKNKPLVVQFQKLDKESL
Text: To prepare the surface for the non-specific binding experiment, chicken egg white lysozyme and trypsin inhibitor from glycine max soybean were coupled manually to a series S CM5 chip with the surface density of 3000-5000 RU using the amine coupling kit according to the manufacture instructions.

Binder | Non-specific binding (RU)
B1 | 8 RU
B2 | 81 RU
B3 | 3 RU

biological target: T8, Human CD3 E+G HuFc-6xHis (human); experiment: SPR (ProteOn XPR36), HuCD3E_HuCD3G-Fc amine-coupled, bispecific as analyte, Example 4B
T8 construct: also called hu CD3εγ-Fc
T8 sequence (chain, as listed by the source limits assumed): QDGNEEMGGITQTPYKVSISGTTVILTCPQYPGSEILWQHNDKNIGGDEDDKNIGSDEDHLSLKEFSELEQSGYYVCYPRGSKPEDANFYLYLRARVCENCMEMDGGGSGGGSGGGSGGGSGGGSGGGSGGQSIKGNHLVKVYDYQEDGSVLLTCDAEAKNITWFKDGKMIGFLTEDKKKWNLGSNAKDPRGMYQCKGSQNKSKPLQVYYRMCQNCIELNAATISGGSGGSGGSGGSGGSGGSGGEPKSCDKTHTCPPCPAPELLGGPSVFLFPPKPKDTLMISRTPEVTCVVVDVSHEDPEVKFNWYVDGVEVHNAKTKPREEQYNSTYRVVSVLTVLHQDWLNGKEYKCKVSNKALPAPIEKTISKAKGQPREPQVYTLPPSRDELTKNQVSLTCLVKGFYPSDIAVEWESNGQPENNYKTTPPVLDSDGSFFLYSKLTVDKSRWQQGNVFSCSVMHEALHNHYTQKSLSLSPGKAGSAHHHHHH
Procedure, shortened: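 SPR kinetics with the bispecific constructs flowed as analyte over a directly amine-coupled (pH 4.5 acetate) human CD3εγ-Fc surface. Association runs 600 s and dissociation 1800 s, at 30 μl/min in PBS-T-EDTA.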

Binder | Kd
B1 | 2 nM
B2 | 3 nM
B3 | 3 nM
